Data published in the supplement of paper PMC10126150.
± gives the standard deviation of the averaged measurements.

Tested on: ATP
Assay: switch fluorescence ratio, 500 uM ATP over buffer (Cy3 cluster intensity, sum of 5 cycles each) (fold (ratio)); higher = stronger signal-on switching upon ATP binding; sequences stand for … in TCGTCGGCAGCGTCAGATGTGTATAAGAGACAGTTTTTTTTTTTTTTTTTTTTTTTTT…TC
Conditions: aptamer strand: ATP DNA aptamer (quencher-CACCTGGGGGAGTATTGCGGAGGAAGG + anchor), 100 nM annealed; ATP concentration: 500 uM
Method in brief: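 Five buffer/ATP imaging cycles were run on Cy3-labelled switching-strand clusters on a modified Illumina MiSeq flow-cell, with NaOH stripping and re-annealing between cycles. In each cycle, clusters annealed to 100 nM quencher-labelled ATP aptamer were imaged in selection buffer, then after 15 min with 500 uM ATP at 22 °C. Per cluster, the fluorescence ratio is summed target-cycle over summed buffer-cycle Cy3 intensity, averaged per switch-domain sequence. Only clusters within 100-1000 RFU were kept.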
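Also: ATP exposure 15 min at 22 °C before imaging.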

Sequence	switch fluorescence ratio
GAAATTTAGG	0.9938 ± 0.0046
GAAATTTGAA	1.01 ± 0.012
GAAATTTGGA	0.991 ± 0.034
GAAATTTGGT	0.99 ± 0.042
GAACACTTAT	1.04 ± 0.044
GAACCATGTT	0.977 ± 0.014
GAACCGGATG	0.9997 ± 0.0074
GAACCTAGAG	0.98 ± 0.056
GAACGAAGTT	1 ± 0.018
GAACGGAATT	1.19 ± 0.023
GAACGGCTG	1.07 ± 0.049
GAACGTCCAG	0.99 ± 0.027
GAACGTCTAC	1.28 ± 0.056
GAACTAAGGA	0.9895 ± 0.0027
GAACTCATGA	0.982 ± 0.012
GAACTGATAA	1.16 ± 0.2
GAACTGGTAG	0.992 ± 0.035
GAACTTGGGA	0.983 ± 0.058
GAACTTGGTT	1 ± 0.062
GAACTTTTTT	0.9935 ± 0.0083
GAAGAAAGAG	1.02 ± 0.022
GAAGACAGTA	1.01 ± 0.013
GAAGACGTTA	1.04 ± 0.023
GAAGAGCGGG	0.978 ± 0.016
GAAGATAGGT	0.993 ± 0.03

Sequence	switch fluorescence ratio
GAAGATAGTG	0.986 ± 0.03
GAAGATATTA	1 ± 0.011
GAAGATGGGG	1.01 ± 0.024
GAAGCAGCAG	1.1888 ± 0.00054
GAAGCCCAGG	3.38 ± 2.6
GAAGCGCGTC	0.998 ± 0.049
GAAGCTCCTG	0.996 ± 0.0043
GAAGCTTGGT	0.972 ± 0.041
GAAGGAAGAT	0.9708 ± 0.0069
GAAGGAAGTG	1 ± 0.034
GAAGGAATGT	1 ± 0.022
GAAGGAGAAG	0.955 ± 0.0083
GAAGGCAAGG	1.07 ± 0.011
GAAGGGAGCA	1.02 ± 0.028
GAAGGGATGT	1.01 ± 0.042
GAAGGGCAGT	0.966 ± 0.029
GAAGGGCGTT	0.98247 ± 0.00082
GAAGGGGACG	1.006 ± 0.0085
GAAGGGGTGG	1.01 ± 0.037
GAAGGGGTTC	1.06 ± 0.084
GAAGGGTAAT	0.9955 ± 0.0036
GAAGGTAGAG	0.99 ± 0.042
GAAGGTAGCA	1.03 ± 0.041
GAAGGTATAC	1.66 ± 0.18
GAAGGTATGT	0.96567 ± 1.1e-05

Sequence	switch fluorescence ratio
GAAGGTGGGC	0.962 ± 0.028
GAAGGTTATG	1 ± 0.015
GAAGTAAGAG	1.11 ± 0.019
GAAGTAGTCG	1.06 ± 0.017
GAAGTATGGT	1.01 ± 0.031
GAAGTCGTAG	0.96 ± 0.039
GAAGTCGTGC	0.999 ± 0.023
GAAGTCGTT	0.973 ± 0.0057
GAAGTGGGGG	1.01 ± 0.042
GAAGTTATCG	0.982 ± 0.022
GAAGTTGCCT	1.05 ± 0.028
GAAGTTGTCA	1.02 ± 0.047
GAAGTTGTGT	0.987 ± 0.031
GAAGTTGTTG	0.9642 ± 0.0036
GAAGTTTTTG	0.993 ± 0.017
GAATAAATTT	1.02 ± 0.069
GAATACTTCG	1.07 ± 0.016
GAATACTTGG	1.04 ± 0.054
GAATAGGGCC	1.01 ± 0.028
GAATAGGTAA	1.023 ± 0.0038
GAATAGGTAT	0.99505 ± 0.00011
GAATATCTGG	0.97 ± 0.011
GAATATGTAG	0.965 ± 0.044
GAATATTCGC	0.9958 ± 0.0032
GAATCAGGGA	1.02 ± 0.015

Sequence	switch fluorescence ratio
GAATCATATG	0.977 ± 0.011
GAATCATTTT	1.02 ± 0.036
GAATCGGGGG	0.979 ± 0.044
GAATGACCCG	1.11 ± 0.012
GAATGCGGAA	1.0339 ± 0.00078
GAATGGATGT	1 ± 0.012
GAATGGCGTA	1.02 ± 0.046
GAATGGGATA	1.04 ± 0.084
GAATGGTATA	0.9925 ± 0.0035
GAATTACTAT	1.038 ± 0.0087
GAATTATCTA	0.996 ± 0.022
GAATTCAGGT	0.994 ± 0.011
GAATTCCAGT	0.9968 ± 0.0076
GAATTCGGAA	1.0486 ± 0.00049
GAATTCGGAC	1.04 ± 0.016
GAATTTATGG	0.985 ± 0.023
GAATTTATTT	0.999 ± 0.025
GAATTTGATT	1.02 ± 0.025
GACAAAAGGT	1.03 ± 0.013
GACAAACCGC	1.18 ± 0.032
GACAAATGTG	0.99815 ± 0.00093
GACAAGGGGG	0.981 ± 0.065
GACACAAAAG	1.069 ± 0.0023
GACACGGGCG	1.044 ± 0.0035
GACACTTGGA	1.03 ± 0.014
